Reference: PMC7004355 (PLoS ONE, 2020)

What was measured:
[1] = biological target: T1, OTC (E. coli ornithine transcarbamoylase, argI) (Escherichia coli, UniProt P04391); experiment: thermal shift (Sypro Orange); type: binding; conditions: absolute Tm, not dTm; 1 mM carbamoyl phosphate, 10 μM enzyme, 50 mM HEPES pH 8, 200 mM NaCl, 2 mM DTT
T1 construct: full length, uncleaved 6xHis tag, pCA24N ASKA clone, expressed in BL21(DE3) Tuner; homotrimer of 333-residue subunits
T1 sequence (P04391 2-334): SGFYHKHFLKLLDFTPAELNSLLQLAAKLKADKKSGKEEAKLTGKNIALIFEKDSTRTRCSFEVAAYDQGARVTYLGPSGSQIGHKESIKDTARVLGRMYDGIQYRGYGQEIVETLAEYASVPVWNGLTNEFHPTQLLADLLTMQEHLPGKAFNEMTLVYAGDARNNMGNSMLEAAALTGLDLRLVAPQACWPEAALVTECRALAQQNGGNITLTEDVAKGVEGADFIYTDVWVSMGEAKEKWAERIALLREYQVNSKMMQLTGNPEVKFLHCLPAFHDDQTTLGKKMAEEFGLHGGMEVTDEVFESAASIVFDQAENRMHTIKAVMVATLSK
From the text: thermal shift (Sypro Orange) on OTC (E. coli ornithine transcarbamoylase, argI)

purified protein [2] = substrate: NC(=O)OP(=O)(O)O; experiment: purified protein; type: biochemical, Escherichia coli; conditions: 50 mM Tris pH 8.5, 20 °C, 20 mM NaCl
purified protein [3] = substrate: NCCC[C@H](N)C(=O)O; experiment: purified protein; conditions: 50 mM Tris pH 8.5, 20 °C, 20 mM NaCl, carbamoyl phosphate 5 mM
[4] = biological target: the molecule itself; experiment: SEC-SAXS; in-line SEC-SAXS on a Superdex 200 5/150 GL column; enzyme at 4.3-5.5 mg/mL; apo state, and after incubation with 5 mM CP or 10 mM ORN; self-association of the enzyme (trimer)
[5] = ornithine 60 mM (variants with ORN KM above 3 mM)

NC(=O)OP(=O)(O)O [CP, carbamoyl phosphate]
enzyme +cp [1]: 70 ± 0.5 °C

B1: OTC (E. coli ornithine transcarbamoylase, argI) (Escherichia coli K-12; H273L) (protein)
chain: SGFYHKHFLKLLDFTPAELNSLLQLAAKLKADKKSGKEEAKLTGKNIALIFEKDSTRTRCSFEVAAYDQGARVTYLGPSGSQIGHKESIKDTARVLGRMYDGIQYRGYGQEIVETLAEYASVPVWNGLTNEFHPTQLLADLLTMQEHLPGKAFNEMTLVYAGDARNNMGNSMLEAAALTGLDLRLVAPQACWPEAALVTECRALAQQNGGNITLTEDVAKGVEGADFIYTDVWVSMGEAKEKWAERIALLREYQVNSKMMQLTGNPEVKFLLCLPAFHDDQTTLGKKMAEEFGLHGGMEVTDEVFESAASIVFDQAENRMHTIKAVMVATLSK
notes: full length, uncleaved 6xHis tag, pCA24N ASKA clone, expressed in BL21(DE3) Tuner; homotrimer of 333-residue subunits
Km (purified protein [2]; ornithine 3 mM): 930 ± 580 µM
kcat (purified protein [2]; ornithine 3 mM): 4.2 ± 1.8 s⁻¹
kcat/Km (purified protein [2]; ornithine 3 mM): 5000 ± 1100 M⁻¹ s⁻¹

B2: OTC (E. coli ornithine transcarbamoylase, argI) (Escherichia coli K-12; D141N) (protein)
chain: SGFYHKHFLKLLDFTPAELNSLLQLAAKLKADKKSGKEEAKLTGKNIALIFEKDSTRTRCSFEVAAYDQGARVTYLGPSGSQIGHKESIKDTARVLGRMYDGIQYRGYGQEIVETLAEYASVPVWNGLTNEFHPTQLLANLLTMQEHLPGKAFNEMTLVYAGDARNNMGNSMLEAAALTGLDLRLVAPQACWPEAALVTECRALAQQNGGNITLTEDVAKGVEGADFIYTDVWVSMGEAKEKWAERIALLREYQVNSKMMQLTGNPEVKFLHCLPAFHDDQTTLGKKMAEEFGLHGGMEVTDEVFESAASIVFDQAENRMHTIKAVMVATLSK
notes: as for B1
Km (purified protein [3]): 17000 ± 5900 µM
kcat (purified protein [3]): 460 s⁻¹
kcat/Km (purified protein [3]): 30000 M⁻¹ s⁻¹
Km (purified protein [2]; [5]): 1400 ± 450 µM
kcat (purified protein [2]; [5]): 360 ± 59 s⁻¹
kcat/Km (purified protein [2]; [5]): 290000 ± 90000 M⁻¹ s⁻¹

B3: Escherichia coli ornithine transcarbamoylase (OTC) variant Y229S, His-tagged (enzyme, E. coli)
chain: SGFYHKHFLKLLDFTPAELNSLLQLAAKLKADKKSGKEEAKLTGKNIALIFEKDSTRTRCSFEVAAYDQGARVTYLGPSGSQIGHKESIKDTARVLGRMYDGIQYRGYGQEIVETLAEYASVPVWNGLTNEFHPTQLLADLLTMQEHLPGKAFNEMTLVYAGDARNNMGNSMLEAAALTGLDLRLVAPQACWPEAALVTECRALAQQNGGNITLTEDVAKGVEGADFISTDVWVSMGEAKEKWAERIALLREYQVNSKMMQLTGNPEVKFLHCLPAFHDDQTTLGKKMAEEFGLHGGMEVTDEVFESAASIVFDQAENRMHTIKAVMVATLSK
notes: Anabolic ornithine transcarbamoylase of E. coli, argI gene, 333-residue subunit; Made by site-directed mutagenesis of the ASKA pCA24N plasmid; 6x-His tag not cleaved; source: E. coli BL21 (DE3) Tuner, purified (HisTrap FF, Superdex 200 SEC)
binding result [4]: binds

B4: Escherichia coli ornithine transcarbamoylase (OTC), wild type, His-tagged (enzyme, E. coli)
chain: SGFYHKHFLKLLDFTPAELNSLLQLAAKLKADKKSGKEEAKLTGKNIALIFEKDSTRTRCSFEVAAYDQGARVTYLGPSGSQIGHKESIKDTARVLGRMYDGIQYRGYGQEIVETLAEYASVPVWNGLTNEFHPTQLLADLLTMQEHLPGKAFNEMTLVYAGDARNNMGNSMLEAAALTGLDLRLVAPQACWPEAALVTECRALAQQNGGNITLTEDVAKGVEGADFIYTDVWVSMGEAKEKWAERIALLREYQVNSKMMQLTGNPEVKFLHCLPAFHDDQTTLGKKMAEEFGLHGGMEVTDEVFESAASIVFDQAENRMHTIKAVMVATLSK
notes: Anabolic ornithine transcarbamoylase of E. coli, argI gene, 333-residue subunit; Expressed from the ASKA plasmid pCA24N; also called WT OTC; anabolic OTC; source: E. coli BL21 (DE3) Tuner, purified (HisTrap FF, Superdex 200 SEC)
Km (purified protein [3]): 530 ± 55 µM
kcat (purified protein [3]): 440 s⁻¹
kcat/Km (purified protein [3]): 830000 M⁻¹ s⁻¹
Km (purified protein [2]; ornithine 3 mM): 270 ± 34 µM
kcat (purified protein [2]; ornithine 3 mM): 410 ± 20 s⁻¹
kcat/Km (purified protein [2]; ornithine 3 mM): 1.5e+06 ± 130000 M⁻¹ s⁻¹
stoichiometry N [4]: 3

B5: OTC (E. coli ornithine transcarbamoylase, argI) (Escherichia coli K-12; E300Q) (protein)
chain: SGFYHKHFLKLLDFTPAELNSLLQLAAKLKADKKSGKEEAKLTGKNIALIFEKDSTRTRCSFEVAAYDQGARVTYLGPSGSQIGHKESIKDTARVLGRMYDGIQYRGYGQEIVETLAEYASVPVWNGLTNEFHPTQLLADLLTMQEHLPGKAFNEMTLVYAGDARNNMGNSMLEAAALTGLDLRLVAPQACWPEAALVTECRALAQQNGGNITLTEDVAKGVEGADFIYTDVWVSMGEAKEKWAERIALLREYQVNSKMMQLTGNPEVKFLHCLPAFHDDQTTLGKKMAEEFGLHGGMQVTDEVFESAASIVFDQAENRMHTIKAVMVATLSK
notes: as for B1
Km (purified protein [3]): 330 ± 100 µM
kcat (purified protein [3]): 5.1 s⁻¹
kcat/Km (purified protein [3]): 16000 M⁻¹ s⁻¹
Km (purified protein [2]; ornithine 3 mM): 340 ± 110 µM
kcat (purified protein [2]; ornithine 3 mM): 4.6 ± 1 s⁻¹
kcat/Km (purified protein [2]; ornithine 3 mM): 14000 ± 3300 M⁻¹ s⁻¹

B6: Escherichia coli ornithine transcarbamoylase (OTC) variant Y160F, His-tagged (enzyme, E. coli)
chain: SGFYHKHFLKLLDFTPAELNSLLQLAAKLKADKKSGKEEAKLTGKNIALIFEKDSTRTRCSFEVAAYDQGARVTYLGPSGSQIGHKESIKDTARVLGRMYDGIQYRGYGQEIVETLAEYASVPVWNGLTNEFHPTQLLADLLTMQEHLPGKAFNEMTLVFAGDARNNMGNSMLEAAALTGLDLRLVAPQACWPEAALVTECRALAQQNGGNITLTEDVAKGVEGADFIYTDVWVSMGEAKEKWAERIALLREYQVNSKMMQLTGNPEVKFLHCLPAFHDDQTTLGKKMAEEFGLHGGMEVTDEVFESAASIVFDQAENRMHTIKAVMVATLSK
notes: as for B3
binding result [4]: binds

B7: Escherichia coli ornithine transcarbamoylase (OTC) variant Y160S, His-tagged (enzyme, E. coli)
chain: SGFYHKHFLKLLDFTPAELNSLLQLAAKLKADKKSGKEEAKLTGKNIALIFEKDSTRTRCSFEVAAYDQGARVTYLGPSGSQIGHKESIKDTARVLGRMYDGIQYRGYGQEIVETLAEYASVPVWNGLTNEFHPTQLLADLLTMQEHLPGKAFNEMTLVSAGDARNNMGNSMLEAAALTGLDLRLVAPQACWPEAALVTECRALAQQNGGNITLTEDVAKGVEGADFIYTDVWVSMGEAKEKWAERIALLREYQVNSKMMQLTGNPEVKFLHCLPAFHDDQTTLGKKMAEEFGLHGGMEVTDEVFESAASIVFDQAENRMHTIKAVMVATLSK
notes: as for B3
Km (purified protein [3]): 7300 ± 2000 µM
kcat (purified protein [3]): 410 s⁻¹
kcat/Km (purified protein [3]): 61000 M⁻¹ s⁻¹
binding result [4]: binds

B8: Escherichia coli ornithine transcarbamoylase (OTC) variant S61A, His-tagged (enzyme, E. coli)
chain: SGFYHKHFLKLLDFTPAELNSLLQLAAKLKADKKSGKEEAKLTGKNIALIFEKDSTRTRCAFEVAAYDQGARVTYLGPSGSQIGHKESIKDTARVLGRMYDGIQYRGYGQEIVETLAEYASVPVWNGLTNEFHPTQLLADLLTMQEHLPGKAFNEMTLVYAGDARNNMGNSMLEAAALTGLDLRLVAPQACWPEAALVTECRALAQQNGGNITLTEDVAKGVEGADFIYTDVWVSMGEAKEKWAERIALLREYQVNSKMMQLTGNPEVKFLHCLPAFHDDQTTLGKKMAEEFGLHGGMEVTDEVFESAASIVFDQAENRMHTIKAVMVATLSK
notes: Anabolic ornithine transcarbamoylase of E. coli, argI gene, 333-residue subunit; Made by site-directed mutagenesis of the ASKA pCA24N plasmid; 6x-His tag not cleaved; also called negative control; source: E. coli BL21 (DE3) Tuner, purified (HisTrap FF, Superdex 200 SEC)
binding result [4]: binds

B9: Escherichia coli ornithine transcarbamoylase (OTC) variant Q104L, His-tagged (enzyme, E. coli)
chain: SGFYHKHFLKLLDFTPAELNSLLQLAAKLKADKKSGKEEAKLTGKNIALIFEKDSTRTRCSFEVAAYDQGARVTYLGPSGSQIGHKESIKDTARVLGRMYDGILYRGYGQEIVETLAEYASVPVWNGLTNEFHPTQLLADLLTMQEHLPGKAFNEMTLVYAGDARNNMGNSMLEAAALTGLDLRLVAPQACWPEAALVTECRALAQQNGGNITLTEDVAKGVEGADFIYTDVWVSMGEAKEKWAERIALLREYQVNSKMMQLTGNPEVKFLHCLPAFHDDQTTLGKKMAEEFGLHGGMEVTDEVFESAASIVFDQAENRMHTIKAVMVATLSK
notes: as for B8
binding result [4]: binds

B10: OTC (E. coli ornithine transcarbamoylase, argI) (Escherichia coli K-12; R58A) (protein)
chain: SGFYHKHFLKLLDFTPAELNSLLQLAAKLKADKKSGKEEAKLTGKNIALIFEKDSTATRCSFEVAAYDQGARVTYLGPSGSQIGHKESIKDTARVLGRMYDGIQYRGYGQEIVETLAEYASVPVWNGLTNEFHPTQLLADLLTMQEHLPGKAFNEMTLVYAGDARNNMGNSMLEAAALTGLDLRLVAPQACWPEAALVTECRALAQQNGGNITLTEDVAKGVEGADFIYTDVWVSMGEAKEKWAERIALLREYQVNSKMMQLTGNPEVKFLHCLPAFHDDQTTLGKKMAEEFGLHGGMEVTDEVFESAASIVFDQAENRMHTIKAVMVATLSK
notes: as for B1
Km (purified protein [3]): 440 ± 92 µM
kcat (purified protein [3]): 8.2 s⁻¹
kcat/Km (purified protein [3]): 19000 M⁻¹ s⁻¹
Km (purified protein [2]; ornithine 3 mM): 280 ± 27 µM
kcat (purified protein [2]; ornithine 3 mM): 7.5 ± 1.8 s⁻¹
kcat/Km (purified protein [2]; ornithine 3 mM): 27000 ± 7300 M⁻¹ s⁻¹

B11: Escherichia coli ornithine transcarbamoylase (OTC) variant Y229F, His-tagged (enzyme, E. coli)
chain: SGFYHKHFLKLLDFTPAELNSLLQLAAKLKADKKSGKEEAKLTGKNIALIFEKDSTRTRCSFEVAAYDQGARVTYLGPSGSQIGHKESIKDTARVLGRMYDGIQYRGYGQEIVETLAEYASVPVWNGLTNEFHPTQLLADLLTMQEHLPGKAFNEMTLVYAGDARNNMGNSMLEAAALTGLDLRLVAPQACWPEAALVTECRALAQQNGGNITLTEDVAKGVEGADFIFTDVWVSMGEAKEKWAERIALLREYQVNSKMMQLTGNPEVKFLHCLPAFHDDQTTLGKKMAEEFGLHGGMEVTDEVFESAASIVFDQAENRMHTIKAVMVATLSK
notes: as for B3
binding result [4]: binds

B12: Escherichia coli ornithine transcarbamoylase (OTC) variant D231A, His-tagged (enzyme, E. coli)
chain: SGFYHKHFLKLLDFTPAELNSLLQLAAKLKADKKSGKEEAKLTGKNIALIFEKDSTRTRCSFEVAAYDQGARVTYLGPSGSQIGHKESIKDTARVLGRMYDGIQYRGYGQEIVETLAEYASVPVWNGLTNEFHPTQLLADLLTMQEHLPGKAFNEMTLVYAGDARNNMGNSMLEAAALTGLDLRLVAPQACWPEAALVTECRALAQQNGGNITLTEDVAKGVEGADFIYTAVWVSMGEAKEKWAERIALLREYQVNSKMMQLTGNPEVKFLHCLPAFHDDQTTLGKKMAEEFGLHGGMEVTDEVFESAASIVFDQAENRMHTIKAVMVATLSK
notes: as for B3
Km (purified protein [3]): 590 ± 330 µM
kcat (purified protein [3]): 0.7 s⁻¹
kcat/Km (purified protein [3]): 1400 M⁻¹ s⁻¹
Km (purified protein [2]; ornithine 3 mM): 150 ± 42 µM
kcat (purified protein [2]; ornithine 3 mM): 0.48 ± 0.1 s⁻¹
kcat/Km (purified protein [2]; ornithine 3 mM): 3400 ± 1300 M⁻¹ s⁻¹
binding result [4]: binds
